{"source": "paper PMC8492941", "target": "ABD-fused VP1 (ABD-VP1) protein vaccine (not stated | Coxsackievirus B3) (UniProt P03313)", "assay": "ELISA; sandwich ELISA on serum of mice injected subcutaneously with ABD-VP1 or VP1: plates pre-coated with anti-VP1 antibody, detection with anti-albumin antibody and HRP-labeled secondary antibody, absorbance at 450 nm; the complex formed in vivo"}
{"substance": "mouse serum albumin (MSA) (from UniProt P07724 25-608) (natural protein)", "values": [{"measurement": "OD450", "value": 0.7, "unit": "OD450"}]}
